Experiments:
Assay in all cases: cell-based or functional assay
[1] = molecular target: SARS-CoV-2 spike (S) protein, variant BA.2.86 (SARS-CoV-2) (UniProt P0DTC2)
[2] = molecular target: SARS-CoV-2 spike (S) protein, variant CH.1.1 (SARS-CoV-2) (UniProt P0DTC2)
[3] = molecular target: SARS-CoV-2 spike (S) protein, variant EG.5.1 (SARS-CoV-2) (UniProt P0DTC2)
[4] = molecular target: SARS-CoV-2 spike (S) protein, variant JN.1 (SARS-CoV-2) (UniProt P0DTC2)
[5] = molecular target: SARS-CoV-2 spike (S) protein, variant KP.2 (SARS-CoV-2) (UniProt P0DTC2)
[6] = molecular target: SARS-CoV-2 spike (S) protein, variant KP.2.3 (SARS-CoV-2) (UniProt P0DTC2)
[7] = molecular target: SARS-CoV-2 spike (S) protein, variant KP.3 (SARS-CoV-2) (UniProt P0DTC2)
[8] = molecular target: SARS-CoV-2 spike (S) protein, variant KP.3.1.1 (SARS-CoV-2) (UniProt P0DTC2)
[9] = molecular target: SARS-CoV-2 spike (S) protein, variant LB.1 (SARS-CoV-2) (UniProt P0DTC2)
[10] = molecular target: SARS-CoV-2 spike (S) protein, variant XEC (SARS-CoV-2) (UniProt P0DTC2)
[11] = molecular target: SARS-CoV-2 spike (S) protein, D614G (SARS-CoV-2) (UniProt P0DTC2)
[12] = molecular target: SARS-CoV-2 spike (S) protein, variant BA.2.86 (SARS-CoV-2)
[13] = molecular target: SARS-CoV-2 spike (S) protein, variant CH.1.1 (SARS-CoV-2)
[14] = molecular target: SARS-CoV-2 spike (S) protein, variant EG.5.1 (SARS-CoV-2)
[15] = molecular target: SARS-CoV-2 spike (S) protein, variant JN.1 (SARS-CoV-2)
[16] = molecular target: SARS-CoV-2 spike (S) protein, variant KP.2 (SARS-CoV-2)
[17] = molecular target: SARS-CoV-2 spike (S) protein, variant KP.2.3 (SARS-CoV-2)
[18] = molecular target: SARS-CoV-2 spike (S) protein, variant KP.3 (SARS-CoV-2)
[19] = molecular target: SARS-CoV-2 spike (S) protein, variant KP.3.1.1 (SARS-CoV-2)
[20] = molecular target: SARS-CoV-2 spike (S) protein, variant LB.1 (SARS-CoV-2)
[21] = molecular target: SARS-CoV-2 spike (S) protein, variant XEC (SARS-CoV-2)
[22] = molecular target: SARS-CoV-2 spike (S) protein, BA.1 variant (SARS-CoV-2) (UniProt P0DTC2)
[23] = molecular target: SARS-CoV-2 spike (S) protein, BA.2.12.1 variant (SARS-CoV-2) (UniProt P0DTC2)
[24] = molecular target: SARS-CoV-2 spike (S) protein, BA.2.75 variant (SARS-CoV-2) (UniProt P0DTC2)
[25] = molecular target: SARS-CoV-2 spike (S) protein, BA.2.75.2 variant (SARS-CoV-2) (UniProt P0DTC2)
[26] = molecular target: SARS-CoV-2 spike (S) protein, BA.4.6 variant (SARS-CoV-2) (UniProt P0DTC2)
[27] = molecular target: SARS-CoV-2 spike (S) protein, BA.4/5 variant (SARS-CoV-2) (UniProt P0DTC2)
[28] = molecular target: SARS-CoV-2 spike (S) protein, variant BJ.1 (SARS-CoV-2) (UniProt P0DTC2)
[29] = molecular target: SARS-CoV-2 spike (S) protein, variant BQ.1.1 (SARS-CoV-2) (UniProt P0DTC2)
[30] = molecular target: SARS-CoV-2 spike (S) protein, variant XBB (SARS-CoV-2) (UniProt P0DTC2)

For VYD222 (antibody), which neutralizing activity IC50 (µg/ml (caption; values match nM)) [1] is on record?
The neutralizing activity IC50 (µg/ml (caption; values match nM)) was 14.2.

What about the neutralizing activity IC80 (µg/ml (caption; values match nM)) [1] of the same substance?
The neutralizing activity IC80 (µg/ml (caption; values match nM)) was 36.7.

And the neutralizing activity IC50 (µg/ml (caption; values match nM)) [2]?
Its neutralizing activity IC50 (µg/ml (caption; values match nM)) is 9.93.

And the neutralizing activity IC80 (µg/ml (caption; values match nM)) [2]?
Its neutralizing activity IC80 (µg/ml (caption; values match nM)) is 30.4.

And the neutralizing activity IC50 (µg/ml (caption; values match nM)) [3]?
The neutralizing activity IC50 (µg/ml (caption; values match nM)) was 6.

And the neutralizing activity IC80 (µg/ml (caption; values match nM)) [3]?
The neutralizing activity IC80 (µg/ml (caption; values match nM)) was 20.9.

And the neutralizing activity IC50 (µg/ml (caption; values match nM)) [4]?
The neutralizing activity IC50 (µg/ml (caption; values match nM)) was 4.71.

And the neutralizing activity IC80 (µg/ml (caption; values match nM)) [4]?
Its neutralizing activity IC80 (µg/ml (caption; values match nM)) is 15.6.

And the neutralizing activity IC50 (µg/ml (caption; values match nM)) [5]?
The neutralizing activity IC50 (µg/ml (caption; values match nM)) was 4.56.

And the neutralizing activity IC80 (µg/ml (caption; values match nM)) [5]?
The neutralizing activity IC80 (µg/ml (caption; values match nM)) was 16.5.

And the neutralizing activity IC50 (µg/ml (caption; values match nM)) [6]?
The neutralizing activity IC50 (µg/ml (caption; values match nM)) was 28.4.

What about the neutralizing activity IC80 (µg/ml (caption; values match nM)) [6] of the same substance?
The neutralizing activity IC80 (µg/ml (caption; values match nM)) was 66.3.

And the neutralizing activity IC50 (µg/ml (caption; values match nM)) [7]?
Its neutralizing activity IC50 (µg/ml (caption; values match nM)) is 8.83.

What about the neutralizing activity IC80 (µg/ml (caption; values match nM)) [7] of the same substance?
The neutralizing activity IC80 (µg/ml (caption; values match nM)) was 39.5.

And the neutralizing activity IC50 (µg/ml (caption; values match nM)) [8]?
Its neutralizing activity IC50 (µg/ml (caption; values match nM)) is 27.2.

What about the neutralizing activity IC80 (µg/ml (caption; values match nM)) [8] of the same substance?
Its neutralizing activity IC80 (µg/ml (caption; values match nM)) is greater than 67.

And the neutralizing activity IC50 (µg/ml (caption; values match nM)) [9]?
Its neutralizing activity IC50 (µg/ml (caption; values match nM)) is 30.8.

And the neutralizing activity IC80 (µg/ml (caption; values match nM)) [9]?
The neutralizing activity IC80 (µg/ml (caption; values match nM)) was greater than 67.

And the neutralizing activity IC50 (µg/ml (caption; values match nM)) [10]?
Its neutralizing activity IC50 (µg/ml (caption; values match nM)) is greater than 67.

And the neutralizing activity IC80 (µg/ml (caption; values match nM)) [10]?
The neutralizing activity IC80 (µg/ml (caption; values match nM)) was greater than 67.

What about the neutralization IC50 [11] of the same substance?
The neutralization IC50 was 0.01 µg/mL.

What about the neutralization IC50 [12] of the same substance?
Its neutralization IC50 is 2.13 µg/mL.

What about the neutralization IC50 [13] of the same substance?
The neutralization IC50 was 1.49 µg/mL.

What about the neutralization IC50 [14] of the same substance?
Its neutralization IC50 is 0.899 µg/mL.

What about the neutralization IC50 [15] of the same substance?
The neutralization IC50 was 0.706 µg/mL.

What about the neutralization IC50 [16] of the same substance?
Its neutralization IC50 is 0.684 µg/mL.

And the neutralization IC50 [17]?
The neutralization IC50 was 4.25 µg/mL.

What about the neutralization IC50 [18] of the same substance?
The neutralization IC50 was 1.32 µg/mL.

What about the neutralization IC50 [19] of the same substance?
The neutralization IC50 was 4.05 µg/mL.

And the neutralization IC50 [20]?
The neutralization IC50 was 4.62 µg/mL.

What about the neutralization IC50 [21] of the same substance?
Its neutralization IC50 is greater than 10 µg/mL.

What does the source list for LY-CoV-1404 (antibody)?
pseudotyped neutralization potency IC50 [22]: 0.002 µg/mL; pseudotyped neutralization potency IC80 [22]: 0.005 µg/mL; pseudotyped neutralization potency IC50 [23]: 0.0013 µg/mL; pseudotyped neutralization potency IC80 [23]: 0.004 µg/mL; pseudotyped neutralization potency IC50 [24]: 0.003 µg/mL; pseudotyped neutralization potency IC80 [24]: 0.015 µg/mL; pseudotyped neutralization potency IC50 [25]: 0.001 µg/mL; pseudotyped neutralization potency IC80 [25]: 0.005 µg/mL; pseudotyped neutralization potency IC50 [26]: 0.0004 µg/mL; pseudotyped neutralization potency IC80 [26]: 0.0014 µg/mL; pseudotyped neutralization potency IC50 [27]: 0.0014 µg/mL; pseudotyped neutralization potency IC80 [27]: 0.003 µg/mL; pseudotyped neutralization potency IC50 [28]: > 10 µg/mL; pseudotyped neutralization potency IC80 [28]: > 10 µg/mL; pseudotyped neutralization potency IC50 [29]: > 10 µg/mL; pseudotyped neutralization potency IC80 [29]: > 10 µg/mL; pseudotyped neutralization potency IC50 [30]: > 10 µg/mL; pseudotyped neutralization potency IC80 [30]: > 10 µg/mL
